Measured values: the domain aggregation screens of Martell et al. (2025)

Assay: soluble fraction after stress (log2 fold change); higher = more stays soluble; pooled small domains, quantitative proteomics
Conditions: stress: 50 degC
How it was run: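 Custom libraries of small protein domains were pooled and measured in a high-throughput format, with quantitative proteomics as the read-out. Each library was stressed at 50°C. The value is the log2 fold change in the amount of each protein that stays soluble after stress, used as a measure of aggregation propensity; higher values mean more of the protein stays soluble.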

First: HMEAALTLRVDKAGSLRSLLSDEQYAKTSKIIVSGEINTLDIKTLQEMSGEKGSLQSIDLSQANIVAY
Second: HMGGYVTGTIDLTKFGYAFVITEESEDDVFVAARNLNTALHGDQVKVLLYARHKGKRPEGEVVEIISRSRA
The “soluble fraction (log2)” value of the first is higher: -0.00676 for the first, -1.11 for the second.

First: HMKALYHQLVDLLKKRMESGMIPHDKLPSERELTAQYGVSRTTVRLALQELENTGYIYRRHGKGTFVSDI
Second: HMKPDIETQLKKYRYKVSVSKKIKPYMVFSDKTLSELLTKSPTNLKELEDINGFGPVKVQEYGAAILEILK
The “soluble fraction (log2)” value of the first is lower: -2.27 for the first, -0.777 for the second.

“HMGIPVSIGQLDFNQARGNLALQVRASDFAALEQLRQRLGQTGESVQLGSASRDGDAVSARVVIGGQ” and “HMGKSDEIFIQKSALYEELGQPDRALEMIYSALKSDSLNIDVLHRLVTLLINQNKNEDAILYNQKIID” are within 0.2 log units of each other in “soluble fraction (log2)” value: -0.015 for the first, -0.193 for the second.

Compared with “HMSSVEQAILETLSKEHSHLTSLQVFEEIRGRLPAVNQSTVYRALERLVEQGVVSVSDMGTHAAVYE”, “HMPPDIKVVGVTVASDPRASFAMLSSNGKTLSYRVNDLIEGTEYHLIKVEAAAITIATAGGQSTQIAF” is lower in “soluble fraction (log2)” value: -0.177 for the first, -0.585 for the second.

First: HMDASSAVQFGSLLRDARRRQGLSQAELGGDKYSGSYISHLESGRRVATPEVIEFLSRRLGVSPLEWGVS
Second: HMVEKNALSEEIEGYVNKYGKDRSSLMPVLQAIQRKHSYINDFAQQEVARLLDIHPVEVFSVISFYSFLH
The “soluble fraction (log2)” value of the first is higher: -0.0679 for the first, -1.79 for the second.

“HMNLEQTIVLGKRLFNNALDTLGKKQRSIKNKQINKLLELLNFKNMNELYQSIGVGDKNPLLMAQMML” and “HMDDHLSFLAARLPDGASFDTDFDALGIDSFGMIALRAEVEERLGEQIADSDWTKVERPSEILAMLERK” are within 0.2 log units of each other in “soluble fraction (log2)” value: -0.458 for the first, -0.272 for the second.

“HMLVGKSVIMKTNESSSGMIAGKVNYWENIDGKIYLGINGKLYDIADVDTVLDNDYYDKLVN” and “HMTHRRLELTLDAIDERLDRALTAAVPELSRMQWQRLIREGLVTVDGERARPSYRIQGGETLVALVPEV” are within 0.2 log units of each other in “soluble fraction (log2)” value: -0.347 for the first, -0.234 for the second.

“HMGATYSQFLDQVDGGNVQKVTFSGDMRSGTNQISYTTRSGQSATITAPMDRDLINILRAKNVEIVQEEP” and “HMKPATSITFIPSERPDLVEQLSKITFDKKDSLYENYINLNWLTFEAISVYMREGDIIGFST” are within 0.2 log units of each other in “soluble fraction (log2)” value: 0.026 for the first, 0.0284 for the second.

Going from “HMIVVMAADSSREDLDLVQGRIEARGLRAQISQGVERIVIGVLGSLPPDLKDEMELLPGVREVLVIS” to “HMPAKDAEFTAFVRSATPTLTRTAYLLTGDRETASDLVQEAFVRTYLAWRRVRPEEATAYTRRVLVN”, the “soluble fraction (log2)” value rises from -0.405 to 0.0368.

“HMSTPERQEVLDILKRQGEMTPLQIAGQISRTSKSVSNILSKLKREGFVANGAKYGSWVSTES” and “HMGKDLLGYEVFAESGDLVGILKDVMWLPHSDVYVITKGGKEFLIPVIPEVVKGINHEQGVIVISPMEGLL” are within 0.2 log units of each other in “soluble fraction (log2)” value: 0.0492 for the first, -0.0165 for the second.

Compared with “HMSISSIDFENLKSDELSDAQITQIYRQAQEQGLSIDELSSLAIARGMSPTEVAKLRSRFNSIP”, “HMPQETPIPKSEIQSYDEIWLEPISTDNILRNELRGWYHVKDRWVENEFGNRFYLDTYASKWLAFPS” is lower in “soluble fraction (log2)” value: 0.167 for the first, -0.0557 for the second.

“HMQKFLEATGENRDAAVENALEQLGLERDDVSVEVLEIGKKGFLGIGATPARVRVTYEAPDI” and “HMTYYEGYYRKNQKGFGFVIVDGRDEDIYIDAKNMNGALNNDLVVVEELKGQNGKKTEGRVVKVLKKE” are within 0.2 log units of each other in “soluble fraction (log2)” value: -0.0313 for the first, -0.185 for the second.

Going from “HMGTRHPLPYAFAKAHTVLLEDDGDRLLLHAAENSGPSALGEILRLYDVDALERETASTLANRIAVAYAG” to “HMEEPLIISIDSNGAVYLEVDSFKDQSIEMSSLREIIEKIILANPDIQVVVRGDSEVKYEKVMDLMSILQS”, the “soluble fraction (log2)” value falls from 0.00932 to -1.29.

Compared with “HMDSAVLQKHLVKLIELHAPIKARNLAKILADEFGKHVDRSAVNSALYSLKAERKVEVNSSYEWSLD”, “HMDEKPPHEALSNREFQVLQLLAQGRSVGQIAQQLTLSANTISTYRARIFDKLGLHNPADLFSYAARHRLT” is higher in “soluble fraction (log2)” value: -2.11 for the first, -0.273 for the second.

Going from “HMNQIDEATAATITTLNFLNTNSEFKIPVGDTATRPGTPAIGMMRFNSENDKAEIYVADFDGDGNPGWINL” to “HMSLSQLGLTPRQTDVLALLLKGQPNKLIARELGLSVETVKDHVAAVLRALNVSSRTQAVIAVSQMLQ”, the “soluble fraction (log2)” value falls from -0.189 to -0.905.

First: HMDEPADVAIFDGFRQMSEDELKKLYESLNLAMTFKDFLHIQNYFKNEENREPSVTEIRVLDTYWSDH
Second: HMNVDSIPGKSGIVTQGIDNLKAMGRVTVNGMEWTARSKDGSLIEEGKVVRVYGVEGVKLIVEED
The “soluble fraction (log2)” value of the first is higher: 0.174 for the first, -0.0306 for the second.

Going from “HMPTKSDLLQWIKDRASKMGGAFTNSGAYALADAGVDGPRALSSEINKLLTYVNWERSVEADDVIRL” to “HMELIELTVTEEFEMARLDQFLAGHLTQSRTYIQKLIKAGQITINGNLITRVKVPVHYGDFILINIPDPE”, the “soluble fraction (log2)” value falls from -0.13 to -3.54.

“HMNPETPAQQAVRKRLIVSVQFYRRLKDTPLKAVWQVAARDTLVNGYNLFLKRNIHAFNDRTLSTPSALS” and “HMVSEDELLARIALLPYPQAKILLEERLSHDPANAKVRQLYLELAKKSGDHTEVTRHNSLLY” are within 0.2 log units of each other in “soluble fraction (log2)” value: -0.0672 for the first, -0.104 for the second.

Compared with “HMNKEIEDYVATYSSMKAKEAAAIFDTMTSDLDLVAKILEAMSADDRAKILEQMNEENAARLTKMMD”, “HMEDLMEERKEHLLSVMKDPAYVPMKQKELAMLLNVPKGLREELNQVLDALVAEGSVVMSKRGKYTIPQ” is lower in “soluble fraction (log2)” value: 0.21 for the first, -0.0312 for the second.

First: HMNAFEIYPNPASNLIRIDAEFTVAKIFSQTGNLIQTSTTKEIDVYNLANGIYFVKLDDSPSMVKFVIN
Second: HMNAMFEKVLAAVMGFIGVSAFAKNADGKSEMTSDQEKRLTDKWGSKFVEEFKNDLLEYEKNGNAAEDAV
The “soluble fraction (log2)” value of the first is lower: -0.705 for the first, -0.264 for the second.

Compared with “HMKTDFEIDITVKASSLRVVASPGGDELVGTVTRGDRVTQLATPKDGWILIKMTDGRLGYVPESLLLFP”, “HMVEVVDAEKLEERLSKVFSAAVLLEIYNENPAHGKEYAYLFTARKNAVEEMIENGQMKRETWEAK” is lower in “soluble fraction (log2)” value: -0.0577 for the first, -0.963 for the second.

First: HMGITMFGQNLKKLRTSKNLSQSKLSKILGISSSTIGMYEQGRRFPDQTILTKIADFFDVSTDYLLGR
Second: HMSAEKDGEWLTLTEAAKHLQVSPHVIRRLIQTGALPAEQVMRGAPHQIRAADLDTDRVKTMIAR
The “soluble fraction (log2)” value of the first is lower: -0.268 for the first, 0.193 for the second.

First: HMNPDMIAGVLKVPAAAGRLRSALFELGVVDDESYDDDGASRLTVTASQSDLERIVAQAGLVFEDVLVERR
Second: HMIRVGRPQYKRGEFVSFDFDNGRKKTEMYGRVDVIDSYGTFGQGREVSYDIRASDGILYKHIPESSVYGF
The “soluble fraction (log2)” value of the first is higher: -0.0627 for the first, -1.5 for the second.

Going from “HMNLPISDREKELLTLLSKGLLYKEIASKLDITIGTVKQHIHNIYHKLHVSNKTEALNLFNK” to “HMSSFIEAIKQSGTDSLDVIMKNGRVYRYVGIDADRLGYLLEPHQQKLSLEESIGRFYIDYIKGIYEAIE”, the “soluble fraction (log2)” value falls from -0.685 to -1.57.

“HMHPKDVPTRRELEVLQAVSEGLSTAEIGLRLDITENTVETFRRRLIQKFDAKNAIDLVVKAMAQGWIKV” and “HMSETTSRVLQLLGLLQARRVWTGQELADRLGVTGRSVRRDIERLRDLGYPVHASKGRDGGYQLGA” are within 0.2 log units of each other in “soluble fraction (log2)” value: -1.16 for the first, -1.01 for the second.

Going from “HMDFGPDSAAPLADGSAPEGFDVKGNADSMLYHEPDGRWYDATVAEVWFRTAEAAQAAGFTKAGS” to “HMKSKHENLIDGLLKMISSMKPHDRLTPERQLAEEWAVSRMTLRRALEVLQFQGKIYTVPSSGLFVAEPK”, the “soluble fraction (log2)” value falls from -0.0829 to -2.29.

Going from “HMKGALQIAIEEGFNWNLDKKYWNIVQSTVIAKRLGLKTTSGLKEAIEGMGGEYKRTKKARGYLVPTFKD” to “HMQAALEVQASAGVLAPVPPDQRQALLDTLAQDPRPGYQHEAGRVYGFPFGGFEVRFTVSDGLLTVLSAYK”, the “soluble fraction (log2)” value rises from -2.31 to -1.7.

“HMENIEVDFGVGDTVSVIGGAWKDTVGVVQAMNPNKQSLTINVELFGRETPVEISFTDVQKM” and “HMENTFNENLRRIRKEKKITQEQLAEFVGVSPQAVSKWEMNSFPDASLLPKIAEKLEVSIDELFGLK” are within 0.2 log units of each other in “soluble fraction (log2)” value: -0.0126 for the first, 0.000882 for the second.

Compared with “HMDTGPSFATRRQEAFNALTQIAASNKEFMNVAGDVLWKVADFPEAQILAQRWRRIIPPNVLGEA”, “HMASQFSLIVTQADAGMRLDSLLAVSGAYPSRSAAVKQIEAGKVLVNGLARSKRSIVAPGDTIVYEEIP” is lower in “soluble fraction (log2)” value: -0.193 for the first, -0.584 for the second.

First: HMHGESIPIPNILHKRYADAEQIVNNLRLEIEVTDTGYVRSLPPGAILEQTPGPGERVKSGHIIYVTINAA
Second: HMDLMSTNEKLLYTMRYLISKSLDGAITEEEIRRLDRLIIENSQARAYYVEYLQIHTHLRKLMQQNPELK
The “soluble fraction (log2)” value of the first is higher: -0.291 for the first, -1.97 for the second.

Compared with “HMYMKLSVKDAALFLSVSPETVYRWVKQEEIPYHTVNDQLRFNRAELLEWATARSLEVSPDLFVP”, “HMTRLSSREAQVISLVRDGMTNQQIAERLELSPLTIKNHVQNILRKLDVSNRAQAVAKAVKARLI” is higher in “soluble fraction (log2)” value: -3.04 for the first, -0.3 for the second.

Compared with “HMSQTPDLQQERANLGDNADARIEAVDLWANKFFPEEHADAILQIGQTAKGIEALEFIMSKV”, “HMTSRLLTPRQRYVFDTAMKEGFYDVPRRITLTELASVLDVAKSTLSAQLHRIESTVHHAYADDIRRRS” is lower in “soluble fraction (log2)” value: 0.0193 for the first, -2.35 for the second.

“HMSVTMPNLVGLDEQTAVTRINSSNLSYGSTNYVHSDHEAGVVFKQSTPAYTEVDEHTKIYIWVSLGPEE” and “HMGAPLAVGDSVRVVVSGPRAFVYTAPNGALSGAVRNGAAFTVLELSPDNTWARIGSGEWIKVEFLATG” are within 0.2 log units of each other in “soluble fraction (log2)” value: -0.0912 for the first, 0.0428 for the second.

First: HMTAGYFTRGSHQDEVLRIQGTPSGVNKYSDHEVWNYGLSSVDISLRDRRVTEWNNISGNLKV
Second: HMQLTDLSALEAIIKEVLAANPKSVEDYKSGKEKAFGSLVGQAMKATKGKANPETVNSLLRKNLN
The “soluble fraction (log2)” value of the first is lower: -0.152 for the first, 0.519 for the second.

First: HMGSVVATLRKLIIDGHYPAGTRLAEIPVANALGVSRTPVRLAFRTLQQEGLLQTVGKRGIVVRAF
Second: HMNTDIHRLLDEAFVRVDMTPDAQHLKEEIRANLVARVDELEASGVPSADAARRAIAELGDVRELL
The “soluble fraction (log2)” value of the first is lower: -1.21 for the first, 0.17 for the second.

First: HMDNLATRILKELNNNDGFLPLSDKSQPEAIYQAFGISKKSYKTAIGTLYKKRLITISENGIQLTD
Second: HMYAEVTITIEKGMTSDSVSKLLYKAGIVDDAKEFNNYIIKAGKSTKILIGEFTIQKGASYDDIIKIIA
The “soluble fraction (log2)” value of the first is higher: -0.688 for the first, -1.37 for the second.

Compared with “HMKTLSKEDIGFLSDEAVGEMRKAVANGEMLELRALIDQVGEKNPIVAEKLLTLVKQYDYENLNRVLE”, “HMTSISMDEKVVLGWHQVTTGAANSGMDKVVSNTSGLNVISPTWFKLSDNKGNYISIASKDYVDAAHKKGL” is lower in “soluble fraction (log2)” value: 0.0931 for the first, -0.232 for the second.

For “HMRPTVNETQIREVFRSILGREVDPEGLRHYLGQAAKGWSIDQIRADVNNSQEAHQRRAELARQAEELK”, the “soluble fraction (log2)” value was 0.181.
